Assay results from patent US20240025971A1.

Molecular target: SARS-CoV-2 Wuhan D614G full-length Spike protein (SARS-CoV-2) (UniProt P0DTC2)
Assay: cell-based or functional assay

Anti-Nucleocapsid (Neg Control) (antibody)
Pseudovirus Neutralization: > 50 µg/mL
